From patent WO2007076336A1 come the findings set out here.

The test addresses Human CGRP (Example 4, isoform not stated) (human) (UniProt P80511). The test is described as follows: cell-based or functional assay.
Sequence of UniProt P80511 (P80511 2-92 limits assumed): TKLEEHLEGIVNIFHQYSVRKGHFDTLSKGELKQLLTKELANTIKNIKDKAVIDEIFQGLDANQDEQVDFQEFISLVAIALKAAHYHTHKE

The substance “monoclonal antibody C7113 (Sigma-Aldrich, St. Louis, MO)” yielded an IC50, inhibition of CGRP-induced cAMP in SK-N-MC cells (HTRF) of 10.1 nM.
